From PMC5465072 (2017)
Square brackets hold non-standard residues; d marks the D form. Ends that are not written are not given here. Tyr(3-NO2) = N[C@@H](Cc1ccc(O)c([N+](=O)[O-])c1)C(=O)O; Phe(4-NO2) = N[C@@H](Cc1ccc([N+](=O)[O-])cc1)C(=O)O; Tyr(3,5-Br2) = N[C@@H](Cc1cc(Br)c(O)c(Br)c1)C(=O)O; Phe(4-CN) = N#Cc1ccc(C[C@H](N)C(=O)O)cc1; Phe(4-Cl) = N[C@@H](Cc1ccc(Cl)cc1)C(=O)O; Phe(4-F) = N[C@@H](Cc1ccc(F)cc1)C(=O)O; hPhe = N[C@@H](CCc1ccccc1)C(=O)O; Phg = N[C@H](C(=O)O)c1ccccc1

T1: CMG2 38-218 (Homo sapiens, UniProt P58335)
T1 chain: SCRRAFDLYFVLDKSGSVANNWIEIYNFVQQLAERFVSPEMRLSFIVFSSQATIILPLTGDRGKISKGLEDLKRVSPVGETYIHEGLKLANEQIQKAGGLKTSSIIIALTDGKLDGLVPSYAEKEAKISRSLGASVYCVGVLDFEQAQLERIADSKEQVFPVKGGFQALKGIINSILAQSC

B1: CLR(D-Phe)T (peptide)
chain: CLR[dF]T
B2: CLR(homophenylalanine)T (peptide)
chain: CLR[hPhe]T
B3: CLR(4-Cl-F)T (peptide)
chain: CLR[Phe(4-Cl)]T
B4: CLR(4-nitro-F)T (peptide)
chain: CLR[Phe(4-NO2)]T
B5: CLR(4-fluoro-F)T (peptide)
chain: CLR[Phe(4-F)]T
B6: CLR(3-nitro-Y)T (peptide)
chain: CLR[Tyr(3-NO2)]T
B7: CLR(phenylglycine)T (peptide)
chain: CLR[Phg]T
B8: CLR(3,5-dibromo-Y)T (peptide)
chain: CLR[Tyr(3,5-Br2)]T
B9: CLR(4-cyano-F)T (peptide)
chain: CLR[Phe(4-CN)]T
B10: CLRPT (peptide)
chain: CLRPT

Target: T1, CMG2 38-218
Test: microscale thermophoresis

Row | Binder | Kd
1 | B1 | 31 µM
2 | B2 | 74 µM
3 | B3 | 14 µM
4 | B4 | 36.2 µM
5 | B5 | 49.9 µM
6 | B6 | 112 µM
7 | B7 | 59.6 µM
8 | B8 | 60 µM
9 | B9 | 61.4 µM

Target: T1, CMG2 38-218
Test: sandwich ELISA (competition with His6-PA 488-735)

Row | Binder | IC50
10 | B10 | 153 µM
